The source of these data is paper PMC3673938, “Two Distinct Calmodulin Binding Sites in the Third Intracellular Loop and Carboxyl Tail of Angiotensin II (AT1A) Receptor” (PLoS ONE, 2013).

Conditions in all cases: both partners purified
Test [1] concerns the target T1, dansyl-calmodulin (bovine brain) (bovine, UniProt P62157 1-149, dansyl (0.18–0.34 mol of dansyl moiety per mol of CaM), site not stated).
T1 construct: calmodulin, bovine brain, dansylated; also called dansyl-CaM; source: CaM purified from bovine brain (bought: Calbiochem), labelled with dansyl chloride
Kind of test: other fluorescence titration; peptides (25–2000 nM) with 147 nM dansyl-CaM, 0.1 mM calcium, 1 hour at room temperature; emission at 485 nm; apparent dissociation constants.

In test [2] the target is T1, dansyl-calmodulin (bovine brain). As to the kind of experiment: dansyl-CaM fluorescence emission spectrum; 106 nM dansyl-CaM, 500 nM peptide, 0.1 mM calcium, 1 hour at room temperature; excitation 340 nm, emission 425–600 nm; compared with dansyl-CaM in 10 mM EGTA.
Test [3] has as its target T2, calmodulin purified from bovine brain (bovine, UniProt P62157 1-149).
T2 construct: calmodulin, bovine brain; also called CaM; pure bovine brain CaM; source: purified from bovine brain; bought: Calbiochem
Kind of test: pull-down; 50 pmol GST-fusion protein with purified bovine brain CaM (50 pmol) in 250 µl of 100 mM Tris-HCl pH 7.5 with 0.1 mM CaCl2; 4°C; glutathione-sepharose 4B beads; immunoblot with anti-CaM; for the mutants density of CaM against loaded GST-fusion protein.

B1: ATct(302–317) peptide (peptide)
peptide: YGFLGKKFKKYFLQLL
notes: also called 1-5-10 motif peptide of the carboxyl tail; source: synthetic peptide (MUSC Proteogenomics Facility, HPLC purified)
For B1, the Kd in test [1] was 79.4 nM. Besides, the “fold increase in dansyl-CaM fluorescence intensity at 482 nm (500 nM peptide)” value in test [2] is about 3.5 fold.

B2: ATct(302–317)F309A peptide (peptide)
peptide: YGFLGKKAKKYFLQLL
notes: AT1A receptor carboxyl tail, amino acids 302–317, with F309A; source: synthetic peptide (MUSC Proteogenomics Facility, HPLC purified)
As for B2, in test [1], the Kd is 308 nM.

B3: ATct(302–317)F313A peptide (peptide)
peptide: YGFLGKKFKKYALQLL
notes: AT1A receptor carboxyl tail, amino acids 302–317, with F313A; source: synthetic peptide (MUSC Proteogenomics Facility, HPLC purified)
Turning to B3, the Kd in test [1] came out at 388 nM.

B4: GST-ATctN(297–324) (domain or fragment)
chain: LNPLFYGFLGKKFKKYFLQLLKYIPPKA
notes: N-terminal part of the carboxyl tail of the AT1A receptor, amino acids 297–324; stop codon after 324A in GST-ATct(297–359); also called GST-N-terminus of carboxyl tail; source: E. coli BL21, purified (glutathione sepharose 4B); not shown: GST, N-terminal, kept
Consider B4, for which the binding result in test [3] is reported as “binds”.

B5: GST-ATi3(213–242) (domain or fragment)
chain: TSYTLIWKALKKAYEIQKNKPRNDDIFRII
notes: amplified from pcDNA3.1-AT1A receptor; cloned in pGEX-4T-1 at BamH I and EcoR I downstream of GST; also called GST-i3 loop; i3 loop of the AT1A receptor; source: E. coli BL21, purified (glutathione sepharose 4B); not shown: GST, N-terminal, kept
B5: in test [3], the binding result was “binds”.

B6: GST-ATi3N(213–234) (domain or fragment)
chain: TSYTLIWKALKKAYEIQKNKPR
notes: also called GST-N-terminus of the i3 loop; source: E. coli BL21, purified (glutathione sepharose 4B); not shown: GST, N-terminal, kept
As to B6, the binding result in test [3] is recorded as “binds”.

B7: ATi3(214–231) peptide (peptide)
peptide: SYTLIWKALKKAYEIQKN
notes: also called 1–12 motif peptide of the i3 loop; source: synthetic peptide (MUSC Proteogenomics Facility, HPLC purified)
Consider B7, for which, in test [1], the Kd came to 177 nM. Also, the “fold increase in dansyl-CaM fluorescence intensity at 486 nm (500 nM peptide)” value in test [2] is about 3.2 fold.
